Stoichiometry N data for one substance are collected here from PMC4570534.

The experiment deals with WT‐EsxB (Bacillus anthracis). The experiment is described as follows: SEC.

Broadly, the stoichiometry N is the number of molecules, sites or subunits per partner or assembly. As to WT‐EsxB (natural protein), the stoichiometry N stood at 4.
